The source of these data is publication PMC12102759 (2025).

First the molecules themselves.
B1: PEX5 peptide 240-255 (Peroxisomal targeting signal 1 receptor), 16-mer library wild type / PEX14 Pex14 (PEX14 PEX14, residues 16-84) (parent complex)
chain 1: AEQWAAEFIQQQGTSD
chain 2: TPGSENVLPREPLIATAVKFLQNSRVRQSPLATRRAFLKKKGLTDEEIDMAFQQSGTAADEPSSLGPAT

Variants of B1 are the subject of this assay. The assay is described as follows: proteomic peptide phage display deep mutational scan (ProP-PD DMS): M13 P8 16-mer library selected against immobilised GST-tagged bait for four days (rounds), NGS of the eluted pools per day and pseudo-replica; bait immobilised on MaxiSorp plates (10 µg), library pre-cleared on GST, 2 h binding at 4 °C, five washes; one round per day, days 1-4; value from days 2 and 3.
For the variant chain 1 AEQWAAEFIQQQGTGD [chain 1 S15G], the screen value is 0.00221 average fractional NGS count over selection days 2 and 3 (reads of this peptide / all reads for the bait, averaged over …. Turning to chain 1 AEQWAAEFIQQQGTQD [chain 1 S15Q], the screen value was 0.0029 average fractional NGS count over selection days 2 and 3 (reads of this peptide / all reads for the bait, averaged over …. The same measure for chain 1 ASQWAAEFIQQQGTSD [chain 1 E2S]: 0.000804 average fractional NGS count over selection days 2 and 3 (reads of this peptide / all reads for the bait, averaged over …; for chain 1 ARQWAAEFIQQQGTSD [chain 1 E2R]: 0.00281 average fractional NGS count over selection days 2 and 3 (reads of this peptide / all reads for the bait, averaged over …. The same measure for chain 1 ATQWAAEFIQQQGTSD [chain 1 E2T]: 0.00227 average fractional NGS count over selection days 2 and 3 (reads of this peptide / all reads for the bait, averaged over …. The same measure for chain 1 AGQWAAEFIQQQGTSD [chain 1 E2G]: 0.000866 average fractional NGS count over selection days 2 and 3 (reads of this peptide / all reads for the bait, averaged over …; for chain 1 ANQWAAEFIQQQGTSD [chain 1 E2N]: 0.0028 average fractional NGS count over selection days 2 and 3 (reads of this peptide / all reads for the bait, averaged over ….

On to chain 1 APQWAAEFIQQQGTSD [chain 1 E2P], for which the screen value was 0.000798 average fractional NGS count over selection days 2 and 3 (reads of this peptide / all reads for the bait, averaged over ….

For the variant chain 1 AWQWAAEFIQQQGTSD [chain 1 E2W], the screen value is 0.000954 average fractional NGS count over selection days 2 and 3 (reads of this peptide / all reads for the bait, averaged over …. The same measure for chain 1 AEQWAAEFIQQQGPSD [chain 1 T14P]: 0.00162 average fractional NGS count over selection days 2 and 3 (reads of this peptide / all reads for the bait, averaged over …; for chain 1 AEQWAAEFIQQQGGSD [chain 1 T14G]: 0.000345 average fractional NGS count over selection days 2 and 3 (reads of this peptide / all reads for the bait, averaged over …; for chain 1 AEQWAAEFIQQQGFSD [chain 1 T14F]: 0.00226 average fractional NGS count over selection days 2 and 3 (reads of this peptide / all reads for the bait, averaged over …. Turning to chain 1 AEQWAAEFIQQQGNSD [chain 1 T14N], the screen value was 0.000434 average fractional NGS count over selection days 2 and 3 (reads of this peptide / all reads for the bait, averaged over …. In the case of chain 1 AEQWAAEFIQQQGQSD [chain 1 T14Q], the screen value is 0.000835 average fractional NGS count over selection days 2 and 3 (reads of this peptide / all reads for the bait, averaged over …. As to chain 1 AEQWSAEFIQQQGTSD [chain 1 A5S], the screen value is 0.00197 average fractional NGS count over selection days 2 and 3 (reads of this peptide / all reads for the bait, averaged over …. The same measure for chain 1 AEQWKAEFIQQQGTSD [chain 1 A5K]: 0.00108 average fractional NGS count over selection days 2 and 3 (reads of this peptide / all reads for the bait, averaged over …; for chain 1 AEQWDAEFIQQQGTSD [chain 1 A5D]: 0.00199 average fractional NGS count over selection days 2 and 3 (reads of this peptide / all reads for the bait, averaged over …; for chain 1 AEQWMAEFIQQQGTSD [chain 1 A5M]: 0.00306 average fractional NGS count over selection days 2 and 3 (reads of this peptide / all reads for the bait, averaged over …. In the case of chain 1 AEQWAATFIQQQGTSD [chain 1 E7T], the screen value is 0.0012 average fractional NGS count over selection days 2 and 3 (reads of this peptide / all reads for the bait, averaged over …. The same measure for chain 1 AEQWAADFIQQQGTSD [chain 1 E7D]: 0.00269 average fractional NGS count over selection days 2 and 3 (reads of this peptide / all reads for the bait, averaged over …; for chain 1 AEQWAALFIQQQGTSD [chain 1 E7L]: 0.0199 average fractional NGS count over selection days 2 and 3 (reads of this peptide / all reads for the bait, averaged over ….

On to chain 1 AEQWAAQFIQQQGTSD [chain 1 E7Q], for which the screen value is 0.00112 average fractional NGS count over selection days 2 and 3 (reads of this peptide / all reads for the bait, averaged over ….

Take chain 1 AEQWAAEFIQIQGTSD [chain 1 Q11I]: the screen value is 0.00199 average fractional NGS count over selection days 2 and 3 (reads of this peptide / all reads for the bait, averaged over …. The same measure for chain 1 AEQWAAEFIQKQGTSD [chain 1 Q11K]: 0.000704 average fractional NGS count over selection days 2 and 3 (reads of this peptide / all reads for the bait, averaged over …; for chain 1 AEQWAAEFIQHQGTSD [chain 1 Q11H]: 0.00664 average fractional NGS count over selection days 2 and 3 (reads of this peptide / all reads for the bait, averaged over …; for chain 1 AEQWAREFIQQQGTSD [chain 1 A6R]: 0.00273 average fractional NGS count over selection days 2 and 3 (reads of this peptide / all reads for the bait, averaged over …. The same measure for chain 1 AEQWANEFIQQQGTSD [chain 1 A6N]: 0.00234 average fractional NGS count over selection days 2 and 3 (reads of this peptide / all reads for the bait, averaged over …; for chain 1 AEQWAFEFIQQQGTSD [chain 1 A6F]: 0.00131 average fractional NGS count over selection days 2 and 3 (reads of this peptide / all reads for the bait, averaged over …; for chain 1 AEQWASEFIQQQGTSD [chain 1 A6S]: 0.00105 average fractional NGS count over selection days 2 and 3 (reads of this peptide / all reads for the bait, averaged over …. For chain 1 AEQWATEFIQQQGTSD [chain 1 A6T], the screen value was 0.0091 average fractional NGS count over selection days 2 and 3 (reads of this peptide / all reads for the bait, averaged over …. The same measure for chain 1 AEQWAAEFLQQQGTSD [chain 1 I9L]: 0.000942 average fractional NGS count over selection days 2 and 3 (reads of this peptide / all reads for the bait, averaged over …. As to chain 1 AEQWAAEFYQQQGTSD [chain 1 I9Y], the screen value is 0.0023 average fractional NGS count over selection days 2 and 3 (reads of this peptide / all reads for the bait, averaged over …. As for chain 1 AEQWAAEFMQQQGTSD [chain 1 I9M], the screen value was 0.00443 average fractional NGS count over selection days 2 and 3 (reads of this peptide / all reads for the bait, averaged over …. As for chain 1 AEQWAAEFQQQQGTSD [chain 1 I9Q], the screen value was 0.00295 average fractional NGS count over selection days 2 and 3 (reads of this peptide / all reads for the bait, averaged over …. As for chain 1 AEQWAAEFKQQQGTSD [chain 1 I9K], the screen value was 0.000873 average fractional NGS count over selection days 2 and 3 (reads of this peptide / all reads for the bait, averaged over …. The same measure for chain 1 AEQWAAEFAQQQGTSD [chain 1 I9A]: 0.00188 average fractional NGS count over selection days 2 and 3 (reads of this peptide / all reads for the bait, averaged over …. The same measure for chain 1 AEQWAAEFIQQWGTSD [chain 1 Q12W]: 0.000968 average fractional NGS count over selection days 2 and 3 (reads of this peptide / all reads for the bait, averaged over …; for chain 1 AEQWAAEFIQQGGTSD [chain 1 Q12G]: 0.00219 average fractional NGS count over selection days 2 and 3 (reads of this peptide / all reads for the bait, averaged over …. The same measure for chain 1 AEQWAAEFIQQEGTSD [chain 1 Q12E]: 0.00182 average fractional NGS count over selection days 2 and 3 (reads of this peptide / all reads for the bait, averaged over …; for chain 1 AEQWAAEFIQQFGTSD [chain 1 Q12F]: 0.00145 average fractional NGS count over selection days 2 and 3 (reads of this peptide / all reads for the bait, averaged over …. Turning to chain 1 AEHWAAEFIQQQGTSD [chain 1 Q3H], the screen value is 0.00576 average fractional NGS count over selection days 2 and 3 (reads of this peptide / all reads for the bait, averaged over …. The same measure for chain 1 AERWAAEFIQQQGTSD [chain 1 Q3R]: 0.000498 average fractional NGS count over selection days 2 and 3 (reads of this peptide / all reads for the bait, averaged over …. The same measure for chain 1 AEVWAAEFIQQQGTSD [chain 1 Q3V]: 0.000961 average fractional NGS count over selection days 2 and 3 (reads of this peptide / all reads for the bait, averaged over …. As for chain 1 AENWAAEFIQQQGTSD [chain 1 Q3N], the screen value was 0.00292 average fractional NGS count over selection days 2 and 3 (reads of this peptide / all reads for the bait, averaged over …. The same measure for chain 1 AEWWAAEFIQQQGTSD [chain 1 Q3W]: 0.00112 average fractional NGS count over selection days 2 and 3 (reads of this peptide / all reads for the bait, averaged over …; for chain 1 AEPWAAEFIQQQGTSD [chain 1 Q3P]: 0.00138 average fractional NGS count over selection days 2 and 3 (reads of this peptide / all reads for the bait, averaged over …. With chain 1 AEQWAAEMIQQQGTSD [chain 1 F8M], the screen value is 0.00109 average fractional NGS count over selection days 2 and 3 (reads of this peptide / all reads for the bait, averaged over …. The same measure for chain 1 AEQWAAEYIQQQGTSD [chain 1 F8Y]: 0.000429 average fractional NGS count over selection days 2 and 3 (reads of this peptide / all reads for the bait, averaged over …. The same measure for chain 1 WEQWAAEFIQQQGTSD [chain 1 A1W]: 0.00504 average fractional NGS count over selection days 2 and 3 (reads of this peptide / all reads for the bait, averaged over …; for chain 1 EEQWAAEFIQQQGTSD [chain 1 A1E]: 0.000945 average fractional NGS count over selection days 2 and 3 (reads of this peptide / all reads for the bait, averaged over …; for chain 1 IEQWAAEFIQQQGTSD [chain 1 A1I]: 0.000927 average fractional NGS count over selection days 2 and 3 (reads of this peptide / all reads for the bait, averaged over ….

Regarding chain 1 KEQWAAEFIQQQGTSD [chain 1 A1K], the screen value is 0.000873 average fractional NGS count over selection days 2 and 3 (reads of this peptide / all reads for the bait, averaged over …. The same measure for chain 1 AEQWAAEFIQQQETSD [chain 1 G13E]: 0.000748 average fractional NGS count over selection days 2 and 3 (reads of this peptide / all reads for the bait, averaged over ….

Take chain 1 AEQWAAEFIRQQGTSD [chain 1 Q10R]: the screen value was 0.00109 average fractional NGS count over selection days 2 and 3 (reads of this peptide / all reads for the bait, averaged over …. The same measure for chain 1 AEQWAAEFIGQQGTSD [chain 1 Q10G]: 0.00258 average fractional NGS count over selection days 2 and 3 (reads of this peptide / all reads for the bait, averaged over …; for chain 1 AEQWAAEFIVQQGTSD [chain 1 Q10V]: 0.00204 average fractional NGS count over selection days 2 and 3 (reads of this peptide / all reads for the bait, averaged over ….
